Holding throughout (conditions): both partners purified
In assay [1] the target is T1, BICD2(2–422)::Strep-tag II (human, UniProt Q8TD16 2-422).
T1 construct: human bicaudal D homolog 2 (BICD2), N-terminal region, residues 2-422; also called bicaudal D homolog 2; source: E. coli BL21, purified (Ni-NTA, TEV cleavage, Strep-Tactin; dialysis or SEC); not shown: 6xHis::MBP, N-terminal, cleaved; Strep-tag II (after linker GSGSGR), C-terminal, kept
The assay can be described thus: pull-down; GST::LIC::6xHis (50 pmol) with 50 or 250 pmol adaptor and glutathione agarose, 1 h at 4°C, 150 μL of 50 mM HEPES, 100 mM NaCl, 5 mM DTT, pH 7.5, 0.1% Tween 20; Coomassie staining and immunoblot against Strep-tag II.

Assay [2] deals with T2, HOOK3(2–552)::Strep-tag II (human, UniProt Q86VS8 2-552).
T2 construct: human Hook homolog 3 (HOOK3), residues 2-552; used for the GST pull-downs; also called Hook homolog 3; source: E. coli Rosetta, purified (Ni-NTA, TEV cleavage, Strep-Tactin; dialysis or SEC); not shown: 6xHis::MBP, N-terminal, cleaved; Strep-tag II (after linker GSGSGR), C-terminal, kept
T2 sequence (looked up): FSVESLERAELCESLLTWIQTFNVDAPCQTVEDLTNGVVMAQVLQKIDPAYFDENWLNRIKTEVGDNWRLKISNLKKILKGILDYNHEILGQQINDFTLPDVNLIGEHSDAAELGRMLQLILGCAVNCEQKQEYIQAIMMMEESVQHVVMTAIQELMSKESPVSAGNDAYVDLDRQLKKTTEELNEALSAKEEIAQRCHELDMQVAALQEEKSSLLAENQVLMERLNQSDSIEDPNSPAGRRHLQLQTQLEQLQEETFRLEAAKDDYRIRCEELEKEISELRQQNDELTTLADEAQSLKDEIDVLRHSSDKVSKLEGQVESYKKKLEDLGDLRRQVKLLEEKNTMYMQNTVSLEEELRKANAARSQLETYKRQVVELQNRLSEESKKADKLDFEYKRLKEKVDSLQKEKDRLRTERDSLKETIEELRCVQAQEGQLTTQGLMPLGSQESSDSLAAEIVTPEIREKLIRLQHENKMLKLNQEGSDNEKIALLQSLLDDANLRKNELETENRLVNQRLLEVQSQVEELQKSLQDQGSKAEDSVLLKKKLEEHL
The assay is described as above.

In assay [3] the target is T3, RILP(1–401)::Strep-tag II (human, UniProt Q96NA2 1-401).
T3 construct: also called RILP::Strep-tag II; source: Sf21 insect cells (baculovirus), purified (Strep-Tactin Sepharose); not shown: Strep-tag II (after linker GSGSGR), C-terminal, kept
T3 sequence (looked up): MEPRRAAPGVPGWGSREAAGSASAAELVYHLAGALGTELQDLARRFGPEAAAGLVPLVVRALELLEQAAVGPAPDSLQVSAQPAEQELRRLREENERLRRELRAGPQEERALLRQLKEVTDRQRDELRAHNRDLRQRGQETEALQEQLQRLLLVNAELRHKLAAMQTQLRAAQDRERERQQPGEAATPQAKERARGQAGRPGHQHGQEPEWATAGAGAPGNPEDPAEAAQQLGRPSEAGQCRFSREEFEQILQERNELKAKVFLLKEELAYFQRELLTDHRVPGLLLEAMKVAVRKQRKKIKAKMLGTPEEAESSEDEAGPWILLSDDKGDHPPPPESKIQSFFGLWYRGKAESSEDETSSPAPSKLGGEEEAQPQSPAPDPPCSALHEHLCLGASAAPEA
Described as above.

In assay [4] the target is T3, RILP(1–401)::Strep-tag II. The assay can be described thus: SPR; Biacore X100, CM5 chip; GST::LIC1::6xHis captured by immobilised anti-GST antibody, RILP::Strep-tag II as analyte (0.3–50 μM); 25°C; 10 mM HEPES, 150 mM NaCl, 3 mM EDTA, 0.05% surfactant P20, pH 7.4; 1:1 model.
For assay [5], the target named is T4, RAB11FIP3(2–756)::Strep-tag II (human, UniProt O75154 2-756).
T4 construct: source: E. coli BL21, purified (Ni-NTA, TEV cleavage, Strep-Tactin; dialysis or SEC); not shown: 6xHis::MBP, N-terminal, cleaved; Strep-tag II (after linker GSGSGR), C-terminal, kept
T4 sequence (looked up): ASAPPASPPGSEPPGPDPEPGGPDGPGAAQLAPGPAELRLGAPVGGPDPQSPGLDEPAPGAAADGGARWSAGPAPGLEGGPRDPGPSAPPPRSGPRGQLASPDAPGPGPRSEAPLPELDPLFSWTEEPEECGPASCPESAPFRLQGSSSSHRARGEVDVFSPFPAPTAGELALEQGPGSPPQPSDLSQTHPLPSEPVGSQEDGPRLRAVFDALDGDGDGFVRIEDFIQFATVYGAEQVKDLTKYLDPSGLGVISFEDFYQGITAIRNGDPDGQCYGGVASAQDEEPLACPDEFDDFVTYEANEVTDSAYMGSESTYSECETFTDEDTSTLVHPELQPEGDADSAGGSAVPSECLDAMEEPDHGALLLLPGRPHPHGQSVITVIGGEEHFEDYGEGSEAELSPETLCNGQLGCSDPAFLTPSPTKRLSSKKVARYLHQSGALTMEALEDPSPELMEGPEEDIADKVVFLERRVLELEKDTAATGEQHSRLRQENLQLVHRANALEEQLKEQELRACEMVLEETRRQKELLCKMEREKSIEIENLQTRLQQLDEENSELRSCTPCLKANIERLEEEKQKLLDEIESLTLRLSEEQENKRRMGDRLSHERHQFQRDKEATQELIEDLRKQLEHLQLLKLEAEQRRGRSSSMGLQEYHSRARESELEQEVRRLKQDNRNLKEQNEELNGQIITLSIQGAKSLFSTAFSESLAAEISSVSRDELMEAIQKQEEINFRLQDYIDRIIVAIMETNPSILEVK
The assay can be described thus: pull-down; GST::LIC::6xHis (50 pmol) with 50 or 250 pmol adaptor and glutathione agarose, 1 h at 4°C, 150 μL of 50 mM HEPES, 100 mM NaCl, 5 mM DTT, pH 7.5, 0.1% Tween 20; Coomassie staining and immunoblot against Strep-tag II.

Another assay deals with T5, NIN(1–693)::Strep-tag II (human, UniProt Q8N4C6 1-693).
T5 construct: human ninein (NIN), N-terminal fragment, residues 1-693 of 2,090; also called ninein; source: E. coli Rosetta, purified (Ni-NTA, TEV cleavage, Strep-Tactin; dialysis or SEC); not shown: 6xHis::MBP, N-terminal, cleaved; Strep-tag II (after linker GSGSGR), C-terminal, kept
T5 sequence (looked up): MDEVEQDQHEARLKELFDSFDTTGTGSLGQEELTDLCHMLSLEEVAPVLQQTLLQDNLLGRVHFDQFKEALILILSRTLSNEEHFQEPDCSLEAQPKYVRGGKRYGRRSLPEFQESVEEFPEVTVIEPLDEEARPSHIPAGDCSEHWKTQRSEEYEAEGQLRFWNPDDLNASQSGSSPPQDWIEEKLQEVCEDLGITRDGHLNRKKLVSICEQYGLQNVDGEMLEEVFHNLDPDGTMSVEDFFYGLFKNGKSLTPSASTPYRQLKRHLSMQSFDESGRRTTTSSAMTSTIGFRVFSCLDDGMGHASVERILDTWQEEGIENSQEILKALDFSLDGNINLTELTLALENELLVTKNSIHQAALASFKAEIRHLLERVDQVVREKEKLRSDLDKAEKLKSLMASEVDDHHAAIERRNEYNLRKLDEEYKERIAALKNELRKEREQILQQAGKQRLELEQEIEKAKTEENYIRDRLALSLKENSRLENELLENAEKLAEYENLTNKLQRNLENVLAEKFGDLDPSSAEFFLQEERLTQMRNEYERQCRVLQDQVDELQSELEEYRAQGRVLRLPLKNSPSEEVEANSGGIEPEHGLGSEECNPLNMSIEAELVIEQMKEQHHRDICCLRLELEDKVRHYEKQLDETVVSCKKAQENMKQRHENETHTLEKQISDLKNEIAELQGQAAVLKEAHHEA
Described as above.

Assay [6] concerns the target T6, SPDL1(2–359)::Strep-tag II (human, UniProt Q96EA4 2-359).
T6 construct: human Spindly (SPDL1), N-terminal region, residues 2-359; also called Spindly; source: E. coli BL21, purified (Ni-NTA, TEV cleavage, Strep-Tactin; dialysis or SEC); not shown: 6xHis::MBP, N-terminal, cleaved; Strep-tag II (after linker GSGSGR), C-terminal, kept
T6 sequence (looked up): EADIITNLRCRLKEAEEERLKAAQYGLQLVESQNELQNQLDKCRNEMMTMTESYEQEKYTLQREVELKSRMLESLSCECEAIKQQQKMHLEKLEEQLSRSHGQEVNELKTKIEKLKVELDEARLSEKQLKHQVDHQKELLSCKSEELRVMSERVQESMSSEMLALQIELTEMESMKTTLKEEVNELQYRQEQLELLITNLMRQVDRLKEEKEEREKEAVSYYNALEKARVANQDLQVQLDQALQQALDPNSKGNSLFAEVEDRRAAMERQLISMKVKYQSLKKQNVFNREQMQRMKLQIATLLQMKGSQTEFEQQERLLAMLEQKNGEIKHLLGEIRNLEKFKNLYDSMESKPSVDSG
The assay is described as follows: SPR; Biacore 3000; His-tagged LIC1 immobilised on NTA chip (200–300 RU), Strep-tagged adaptor as analyte; HBS-P (10 mM HEPES, 150 mM NaCl, 0.005% surfactant P20, pH 7.4).

Assay [7] deals with T1, BICD2(2–422)::Strep-tag II. Described as above.

We go through 6 molecules from PMC6336354, “A transient helix in the disordered region of dynein light intermediate chain links the motor to structurally diverse adaptors for cargo transport” (PLoS Biology, 2019).

T1 sequence (Q8TD16 2-422): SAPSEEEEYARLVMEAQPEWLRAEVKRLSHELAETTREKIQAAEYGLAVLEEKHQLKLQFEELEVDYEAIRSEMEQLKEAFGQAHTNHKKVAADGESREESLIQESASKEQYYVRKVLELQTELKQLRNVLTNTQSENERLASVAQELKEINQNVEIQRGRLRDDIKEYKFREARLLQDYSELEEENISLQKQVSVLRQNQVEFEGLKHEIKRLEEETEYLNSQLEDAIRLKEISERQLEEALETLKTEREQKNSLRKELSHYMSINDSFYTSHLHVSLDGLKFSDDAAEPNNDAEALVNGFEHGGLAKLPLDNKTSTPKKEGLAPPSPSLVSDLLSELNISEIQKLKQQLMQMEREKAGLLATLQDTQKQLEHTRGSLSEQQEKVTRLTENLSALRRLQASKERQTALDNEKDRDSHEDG

B1: GST::LIC1(440–471)::6xHis (domain or fragment, human)
chain: WSEGVLANFFNSLLSKKTGSPGGPGVSGGSPAG
notes: single N-terminal tryptophan added in the construct; human dynein light intermediate chain 1 (DYNC1LI1), residues 440-471; source: E. coli BL21, purified (glutathione agarose, Ni-NTA; dialysis or SEC); not shown: GST, N-terminal, kept; 6xHis (after linker GSGSG), C-terminal, kept
B1: the binding result in assay [1], in assay [2] and in assay [3] was “binds” each time.

B2: GST::LIC1(388–523)::6xHis (domain or fragment, human)
chain: WPTAAGRPVDASPRVPGGSPRTPNRSVSSNVASVSPIPAGSKKIDPNMKAGATSEGVLANFFNSLLSKKTGSPGGPGVSGGSPAGGAGGGSSGLPPSTKKSGQKPVLDVHAELDRITRKPVTVSPTTPTSPTEGEAS
notes: single N-terminal tryptophan added in the construct; also called LIC1-C; source: E. coli BL21, purified (glutathione agarose, Ni-NTA; dialysis or SEC); not shown: GST, N-terminal, kept; 6xHis (after linker GSGSG), C-terminal, kept
In the case of B2, in assay [4], binding was put at a Kd of 1180 nM, the off-rate (koff) was 0.00101 s⁻¹ and the kon was found to be 872 M⁻¹ s⁻¹. Further, the binding result in assay [5] was “binds”. For the same molecule, the binding result in the assay with NIN(1–693)::Strep-tag II is listed as “binds”.

B3: GST::LIC1(424–471)::6xHis (domain or fragment, human)
chain: WPAGSKKIDPNMKAGATSEGVLANFFNSLLSKKTGSPGGPGVSGGSPAG
notes: single N-terminal tryptophan added in the construct; human dynein light intermediate chain 1 (DYNC1LI1), residues 424-471; source: E. coli BL21, purified (glutathione agarose, Ni-NTA; dialysis or SEC); not shown: GST, N-terminal, kept; 6xHis (after linker GSGSG), C-terminal, kept
As for B3, the binding result in assay [1], in assay [2] and in assay [3] was “binds” each time.

B4: GST::LIC1(440–455)::6xHis (peptide)
chain: WSEGVLANFFNSLLSKK
notes: single N-terminal tryptophan added in the construct; human dynein light intermediate chain 1 (DYNC1LI1), helix 1, residues 440-455; also called LIC1-C helix 1; GST::LIC1(440–455)::6His; source: E. coli BL21, purified (glutathione agarose, Ni-NTA; dialysis or SEC); not shown: GST, N-terminal, kept; 6xHis (after linker GSGSG), C-terminal, kept
Consider B4, for which, in assay [4], binding was characterised by a dissociation constant (Kd) of 1670 nM, the koff stood at 0.000996 s⁻¹ and the kon stood at 606 M⁻¹ s⁻¹.

B5: GST::LIC1(388–471)::6xHis (domain or fragment, human)
chain: WPTAAGRPVDASPRVPGGSPRTPNRSVSSNVASVSPIPAGSKKIDPNMKAGATSEGVLANFFNSLLSKKTGSPGGPGVSGGSPAG
notes: single N-terminal tryptophan added in the construct; source: E. coli BL21, purified (glutathione agarose, Ni-NTA; dialysis or SEC); not shown: GST, N-terminal, kept; 6xHis (after linker GSGSG), C-terminal, kept
On to B5, for which the binding result (in assay [2]; in assay [3]; in assay [5]; with NIN(1–693)::Strep-tag II) was “binds” each time.

B6: LIC1(388–471)::6xHis (domain or fragment, human)
chain: WPTAAGRPVDASPRVPGGSPRTPNRSVSSNVASVSPIPAGSKKIDPNMKAGATSEGVLANFFNSLLSKKTGSPGGPGVSGGSPAG
notes: single N-terminal tryptophan added in the construct; source: E. coli BL21, purified (GSTrap, PreScission cleavage, second GSTrap, SEC Superdex 75); not shown: GST, N-terminal, cleaved; 6xHis (after linker GSGSG), C-terminal, kept
As to B6, the Kd in assay [6] came to 5400 nM; in assay [7] it was 700 nM.
